IntAct's records for PubMed 20935625

B1: Dynamin-1 (Homo sapiens), Q05193-5 (parent)
chain: MGNRGMEDLIPLVNRLQDAFSAIGQNADLDLPQIAVVGGQSAGKSSVLENFVGRDFLPRGSGIVTRRPLVLQLVNATTEYAEFLHCKGKKFTDFEEVRLEIEAETDRVTGTNKGISPVPINLRVYSPHVLNLTLVDLPGMTKVPVGDQPPDIEFQIRDMLMQFVTKENCLILAVSPANSDLANSDALKVAKEVDPQGQRTIGVITKLDLMDEGTDARDVLENKLLPLRRGYIGVVNRSQKDIDGKKDITAALAAERKFFLSHPSYRHLADRMGTPYLQKVLNQQLTNHIRDTLPGLRNKLQSQLLSIEKEVEEYKNFRPDDPARKTKALLQMVQQFAVDFEKRIEGSGDQIDTYELSGGARINRIFHERFPFELVKMEFDEKELRREISYAIKNIHGIRTGLFTPDLAFEATVKKQVQKLKEPSIKCVDMVVSELTATIRKCSEKLQQYPRLREEMERIVTTHIREREGRTKEQVMLLIDIELAYMNTNHEDFIGFANAQQRSNQMNKKKTSGNQDEILVIRKGWLTINNIGIMKGGSKEYWFVLTAENLSWYKDDEEKEKKYMLSVDNLKLRDVEKGFMSSKHIFALFNTEQRNVYKDYRQLELACETQEEVDSWKASFLRAGVYPERVGDKEKASETEENGSDSFMHSMDPQLERQVETIRNLVDSYMAIVNKTVRDLMPKTIMHLMINNTKEFIFSELLANLYSCGDQNTLMEESAEQAQRRDEMLRMYHALKEALSIIGDINTTTVSTPMPPPVDDSWLQVQSVPAGRRSPTSSPTPQRRAPAVPPARPGSRGPAPGPPPAGSALGGAPPVPSRPGASPDPFGPPPQVPSRPNRAPPGVPRITISDP

Variants of: B1
Conditions: with acts_rabit ACTA1, P68135

Row | effect of a mutation on the interaction | Variant
1 | decreasing interaction | K421A
2 | decreasing interaction | K414A
3 | decreasing interaction | K415A
4 | decreasing interaction | K419A
5 | decreasing interaction | K426A

Variants of: B1
Conditions: with acts_rabit ACTA1, P68135
Remark: another data set of the same source

Row | effect of a mutation on the interaction | Variant
6 | decreasing interaction | K421E
7 | decreasing interaction | K414E
8 | decreasing interaction | K415E
9 | decreasing interaction | K419E
10 | decreasing interaction | K426E

Variants of: B1
Conditions: with acts_rabit ACTA1, P68135
Remark: another data set of the same source

Row | effect of a mutation on the interaction | Variant
11 | increasing interaction | E434K
